Target: EGFP-MYO10-MYO7B chimeric myosin (Bos taurus (Bt) | human (Hs)) (UniProt P79114)
Experiment: in-cell filopodial tip enrichment assay with a chimeric myosin

Sequence of UniProt P79114 (P79114 whole entry, change not shown): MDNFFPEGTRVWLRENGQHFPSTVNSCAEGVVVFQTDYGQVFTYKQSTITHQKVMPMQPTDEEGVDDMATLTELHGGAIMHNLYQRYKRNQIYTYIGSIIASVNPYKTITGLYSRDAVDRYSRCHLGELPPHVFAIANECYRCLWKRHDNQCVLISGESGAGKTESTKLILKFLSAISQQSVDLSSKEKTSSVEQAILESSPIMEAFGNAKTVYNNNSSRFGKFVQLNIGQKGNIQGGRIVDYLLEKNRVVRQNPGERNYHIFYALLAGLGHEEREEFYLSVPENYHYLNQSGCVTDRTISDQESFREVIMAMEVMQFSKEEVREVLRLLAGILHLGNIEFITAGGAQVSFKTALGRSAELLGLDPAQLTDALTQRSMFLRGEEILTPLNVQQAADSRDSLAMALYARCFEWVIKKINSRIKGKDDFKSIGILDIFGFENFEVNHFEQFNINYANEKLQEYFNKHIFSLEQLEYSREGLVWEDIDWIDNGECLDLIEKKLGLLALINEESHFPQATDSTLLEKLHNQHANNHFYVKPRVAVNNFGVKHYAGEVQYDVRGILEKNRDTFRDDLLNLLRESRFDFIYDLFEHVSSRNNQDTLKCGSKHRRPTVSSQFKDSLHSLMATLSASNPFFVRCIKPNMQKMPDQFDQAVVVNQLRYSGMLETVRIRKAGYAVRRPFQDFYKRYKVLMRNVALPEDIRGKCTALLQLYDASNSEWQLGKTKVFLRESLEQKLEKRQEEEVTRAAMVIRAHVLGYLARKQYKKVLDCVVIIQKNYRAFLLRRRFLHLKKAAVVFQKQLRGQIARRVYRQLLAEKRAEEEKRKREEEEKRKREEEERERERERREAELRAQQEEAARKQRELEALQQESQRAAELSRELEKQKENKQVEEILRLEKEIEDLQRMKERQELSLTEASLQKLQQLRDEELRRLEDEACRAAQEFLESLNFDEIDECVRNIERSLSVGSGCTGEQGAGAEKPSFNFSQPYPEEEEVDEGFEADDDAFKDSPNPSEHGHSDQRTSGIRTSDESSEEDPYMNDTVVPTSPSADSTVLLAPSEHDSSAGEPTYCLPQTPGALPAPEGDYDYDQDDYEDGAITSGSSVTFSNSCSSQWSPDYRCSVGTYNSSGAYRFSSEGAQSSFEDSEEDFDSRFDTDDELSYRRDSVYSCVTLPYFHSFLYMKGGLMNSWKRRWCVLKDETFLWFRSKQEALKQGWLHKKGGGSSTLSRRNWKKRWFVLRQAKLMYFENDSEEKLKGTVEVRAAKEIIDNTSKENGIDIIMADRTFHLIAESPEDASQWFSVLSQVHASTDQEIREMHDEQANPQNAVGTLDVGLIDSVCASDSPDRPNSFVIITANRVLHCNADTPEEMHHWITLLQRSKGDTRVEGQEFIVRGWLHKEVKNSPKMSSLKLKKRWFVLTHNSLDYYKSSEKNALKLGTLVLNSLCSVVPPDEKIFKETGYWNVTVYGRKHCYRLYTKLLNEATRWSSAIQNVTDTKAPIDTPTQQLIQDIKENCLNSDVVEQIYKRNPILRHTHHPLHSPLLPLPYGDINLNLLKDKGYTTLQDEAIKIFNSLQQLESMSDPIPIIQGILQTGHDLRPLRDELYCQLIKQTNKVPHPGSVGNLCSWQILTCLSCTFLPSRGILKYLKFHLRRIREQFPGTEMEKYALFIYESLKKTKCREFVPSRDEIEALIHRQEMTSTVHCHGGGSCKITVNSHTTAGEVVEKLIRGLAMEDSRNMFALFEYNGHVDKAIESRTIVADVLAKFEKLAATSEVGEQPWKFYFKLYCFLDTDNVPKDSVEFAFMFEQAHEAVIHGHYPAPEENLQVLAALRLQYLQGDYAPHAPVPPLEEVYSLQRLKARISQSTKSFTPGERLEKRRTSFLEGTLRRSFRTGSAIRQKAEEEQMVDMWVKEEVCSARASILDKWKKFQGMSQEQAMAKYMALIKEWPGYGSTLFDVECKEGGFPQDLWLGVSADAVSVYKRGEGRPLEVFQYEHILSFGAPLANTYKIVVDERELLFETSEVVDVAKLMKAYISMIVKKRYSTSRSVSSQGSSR

Binder | fold enrichment at filopodial tips relative to MYO10MD
mCherry-ANKS4B (ankyrin repeat and sterile a motif domain containing 4B) (natural protein) MSTRYHQAASDSYLELLKEATKRDLNLSDEDGMTPTLLAAYHGNLEALEIICSRGGDPDRCDIWGNTPLHFAASNGHAHCVSFLVNFGANIFALDNDLQTPLDAAASREQNECVALLDKAATAQNIMNPKKVTRLKEQAQKNARRQIKECERLQEKHQNKMAHTYSKEESGTLSSSKGTFSRSSPSNASAPGTFGSLSKGIKDTFKIKFKKNKDTAEQVGKEGRSGQRNVMEVFREEEEDSFSGDFKEKLQLSAEEDGSVHHESILNRPGLGSIVFRRNRISSPEDISDSKREFGFKLPSELLQRQGASEADEGAADEEGEENGLKDDLPWDDDEVEWEEDVVDATPLEVFLLSQHLEEFLPIFKREQIDLEALLLCSDEDLQSIQMQLGPRKKVLNAINRRKQVLQQPGQLVDTSL | 3 fold
mCherry-USH1C (harmonin/Usher syndrome 1C) (natural protein) MDRKVAREFRHKVDFLIENDAEKDYLYDVLRMYHQTMDVAVLVGDLKLVINEPSRLPLFDAIRPLIPLKHQVEYDQLTPRRSRKLKEVRLDRLHPEGLGLSVRGGLEFGCGLFISHLIKGGQADSVGLQVGDEIVRINGYSISSCTHEEVINLIRTKKTVSIKVRHIGLIPVKSSPDEPLTWQYVDQFVSESGGVRGSLGSPGNRENKEKKVFISLVGSRGLGCSISSGPIQKPGIFISHVKPGSLSAEVGLEIGDQIVEVNGVDFSNLDHKEAVNVLKSSRSLTISIVAAAGRELFMTDRERLAEARQRELQRQELLMQKRLAMESNKILQEQQEMERQRRKEIAQKAAEENERYRKEMEQIVEEEEKFKKQWEEDWGSKEQLLLPKTITAEVHPVPLRKPKYDQGVEPELEPADDLDGGTEEQGEQDFRKYEEGFDPYSMFTPEQIMGKDVRLLRIKKEGSLDLALEGGVDSPIGKVVVSAVYERGAAERHGGIVKGDEIMAINGKIVTDYTLAEAEAALQKAWNQGGDWIDLVVAVCPPKEYDDELTFF | 3 fold

Source: article doi:10.1101/2020.09.06.285171
